This is an account of results in patent US20090156476A1 (NASCACELL TECHNOLOGIES, published 2009).

For this test, the target named is T1, TPOR/4Rα hybrid receptor (fusion of the hTPOR extracellular domain and the intracellular 4Rα domain from … (human, UniProt P40238 26-491; P24394 257-825, limits assumed).
T1 sequence (looked up): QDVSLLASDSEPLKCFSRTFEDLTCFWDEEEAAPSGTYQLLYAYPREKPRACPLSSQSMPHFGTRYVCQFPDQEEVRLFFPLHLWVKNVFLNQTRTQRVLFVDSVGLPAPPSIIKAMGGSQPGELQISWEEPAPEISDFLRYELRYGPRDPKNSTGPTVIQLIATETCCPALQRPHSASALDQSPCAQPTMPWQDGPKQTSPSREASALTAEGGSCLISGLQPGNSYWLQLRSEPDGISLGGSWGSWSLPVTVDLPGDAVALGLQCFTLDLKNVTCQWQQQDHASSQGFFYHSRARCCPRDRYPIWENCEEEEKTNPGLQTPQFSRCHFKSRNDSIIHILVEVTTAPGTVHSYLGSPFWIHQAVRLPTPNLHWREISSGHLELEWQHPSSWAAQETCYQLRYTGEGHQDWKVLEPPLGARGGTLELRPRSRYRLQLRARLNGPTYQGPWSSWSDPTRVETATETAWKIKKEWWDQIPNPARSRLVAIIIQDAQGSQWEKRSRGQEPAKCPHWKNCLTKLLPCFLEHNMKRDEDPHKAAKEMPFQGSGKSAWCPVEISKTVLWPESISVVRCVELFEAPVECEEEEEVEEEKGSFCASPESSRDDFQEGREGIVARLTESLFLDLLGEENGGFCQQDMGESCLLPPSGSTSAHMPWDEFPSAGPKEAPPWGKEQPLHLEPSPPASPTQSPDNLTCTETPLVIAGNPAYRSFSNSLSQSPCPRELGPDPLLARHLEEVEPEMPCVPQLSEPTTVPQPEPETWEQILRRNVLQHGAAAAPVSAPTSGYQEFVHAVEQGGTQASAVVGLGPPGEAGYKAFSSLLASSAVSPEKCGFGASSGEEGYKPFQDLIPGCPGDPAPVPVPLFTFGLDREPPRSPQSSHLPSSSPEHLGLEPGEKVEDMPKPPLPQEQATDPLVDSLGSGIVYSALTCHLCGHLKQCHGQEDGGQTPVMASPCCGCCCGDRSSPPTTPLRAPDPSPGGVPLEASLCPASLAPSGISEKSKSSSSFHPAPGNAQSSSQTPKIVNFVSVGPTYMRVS
The experiment in a line: cell-based or functional assay.

Ends that are not written are not given here.

B1: dimeric SE-ET-TP-020 (DSS-crosslinked dimer) (designed binder)
chain: GCIEGPTLRQWLAARACKQDSDCLAGCVCGPNGFCGS
modifications: cysteine pairing not given here; also: DSS-crosslinked dimer, crosslink site not given here
B1: the “Agonist EC50[nM] (Ba/F3 luciferase reporter assay)” value (shortened to “Agonist EC50[nM]”) was found to be 1.4 nM.

B2: dimeric SE-AG-TP-040 (DSS-crosslinked dimer) (designed binder)
chain: GCVRLHESCLGQQVPCCDPAATCGGTALAIEGPTLRQWLAARACKGS
modifications: cysteine pairing not given here; also: dimer crosslinked by DSS, site of crosslink not given here
Regarding B2, the “Agonist EC50[nM]” value is roughly 2 nM.

B3: dimeric SE-AG-TP-050 (DSS-crosslinked dimer) (designed binder)
chain: GCVRLHESCLGQQVPCCDPAATCGGTCLAIEGPTLRQWLCARACKGS
modifications: cysteine pairing not given here; also: dimer crosslinked by DSS, site of crosslink not given here
As to B3, the “Agonist EC50[nM]” value came to 2.5 nM.

B4: dimeric SE-ET-TP-030 (DSS-crosslinked dimer) (designed binder)
chain: GCIEGPTLRQWLAACKQDSDCLAGCVCGPNGFCGS
modifications: cysteine pairing not given here; also: DSS-crosslinked dimer, crosslink site not given here
Consider B4, for which the “Agonist EC50[nM]” value amounted to 2.5 nM.
